# Experimental data: patent publication US20220033485A1 (TEIJIN PHARMA, published 2022)
# Where a chain is given by its changes, count along the chain named. In names and notes the source's numbering stands.
# B1: anti-IGF-I receptor humanized antibody R11-16B (antibody, human IgG4, V domains shown)
# VH: QVQLVQPGAELVKPGASVKVSCKAPGYTFTSYWMHWVRQAPGQGLEWIGETNPSNSVTNYNEKFKSKATLTVDTSTSTVYMELSSLRSEDTAVYYCTIGRGRGFAYWGQGTLVTVSS
# VL: DIQMTQSPSSLSASVGDRVTITCRASQNINFWLSWYQQKPGKAPKLLIYKASNLHTGVPSRFSGSGSGTDFTFTISSLQPEDIATYYCLQGQSYPYTFGQGTKLEIK
# notes: Heavy chain constant region: human IgG4 S228P variant; Expressed in Expi293, protein A purified; also called R11-16B antibody; R11-16VH + R11-16VL-C36Y
# B2: anti-IGF-I receptor humanized antibody R11-16C (antibody, human IgG4, V domains shown)
# VH: B1 VH
# VL: B1 VL with Y36A
# notes: also called R11-16C antibody; R11-16VH + R11-16VL-C36A
# B3: anti-IGF-I receptor humanized antibody R11-16D (antibody, human IgG4, V domains shown)
# VH: B1 VH
# VL: B1 VL with Y36S
# notes: also called R11-16D antibody; R11-16VH + R11-16VL-C36S
# B4: anti-IGF-I receptor humanized antibody R11-16E (antibody, human IgG4, V domains shown)
# VH: B1 VH
# VL: B1 VL with Y36F
# notes: also called R11-16E antibody; R11-16VH + R11-16VL-C36F
# B5: anti-IGF-I receptor humanized antibody R11-16F (antibody, human IgG4, V domains shown)
# VH: B1 VH
# VL: B1 VL with Y36C
# notes: also called R11-16F antibody; R11-16VH + R11-16VL-C36
# Target: T1, human IGF-I receptor (human, UniProt P08069 31-1367)
# Experiment: cell-based or functional assay
# T1 sequence (P08069 31-1367 limits assumed): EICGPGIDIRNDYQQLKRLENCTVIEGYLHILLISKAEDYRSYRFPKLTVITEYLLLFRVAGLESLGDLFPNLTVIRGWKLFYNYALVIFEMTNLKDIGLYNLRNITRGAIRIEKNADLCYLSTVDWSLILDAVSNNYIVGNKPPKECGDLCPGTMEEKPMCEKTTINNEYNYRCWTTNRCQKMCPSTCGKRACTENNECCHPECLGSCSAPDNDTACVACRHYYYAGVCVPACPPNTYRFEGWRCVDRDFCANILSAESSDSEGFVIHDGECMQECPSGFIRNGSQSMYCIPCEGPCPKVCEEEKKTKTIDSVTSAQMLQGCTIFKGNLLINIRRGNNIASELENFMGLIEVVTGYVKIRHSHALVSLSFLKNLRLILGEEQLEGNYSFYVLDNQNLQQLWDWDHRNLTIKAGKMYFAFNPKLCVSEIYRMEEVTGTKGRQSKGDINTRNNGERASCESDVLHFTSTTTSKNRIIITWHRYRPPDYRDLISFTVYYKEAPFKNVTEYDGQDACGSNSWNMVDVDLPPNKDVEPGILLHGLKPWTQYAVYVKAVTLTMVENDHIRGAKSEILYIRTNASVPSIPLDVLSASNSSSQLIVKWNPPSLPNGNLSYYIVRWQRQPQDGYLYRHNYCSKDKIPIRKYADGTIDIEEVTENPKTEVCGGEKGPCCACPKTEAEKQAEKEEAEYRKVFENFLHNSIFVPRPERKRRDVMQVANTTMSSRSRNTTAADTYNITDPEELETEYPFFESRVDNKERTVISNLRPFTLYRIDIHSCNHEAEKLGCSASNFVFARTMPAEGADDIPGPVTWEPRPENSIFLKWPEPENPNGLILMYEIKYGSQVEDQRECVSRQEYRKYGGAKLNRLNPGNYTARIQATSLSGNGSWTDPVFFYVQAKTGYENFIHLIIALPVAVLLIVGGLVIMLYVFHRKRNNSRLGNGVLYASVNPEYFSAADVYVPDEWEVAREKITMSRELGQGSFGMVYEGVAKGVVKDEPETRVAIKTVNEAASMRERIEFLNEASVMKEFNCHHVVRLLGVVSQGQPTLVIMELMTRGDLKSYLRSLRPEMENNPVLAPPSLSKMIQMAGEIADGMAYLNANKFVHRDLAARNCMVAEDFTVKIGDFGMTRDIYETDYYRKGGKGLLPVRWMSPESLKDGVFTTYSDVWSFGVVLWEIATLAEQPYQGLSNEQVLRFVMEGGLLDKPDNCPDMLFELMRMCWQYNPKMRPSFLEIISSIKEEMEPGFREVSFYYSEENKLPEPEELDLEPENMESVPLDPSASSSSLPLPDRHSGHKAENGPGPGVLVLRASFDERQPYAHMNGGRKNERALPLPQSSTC
"Proliferation activity on human myoblast cells (%), 0.005 nM, Experiment 1 [%]","Proliferation activity on human myoblast cells (%), 0.005 nM, Experiment 2 [%]","Proliferation activity on human myoblast cells (%), 0.5 nM, Experiment 1 [%]","Proliferation activity on human myoblast cells (%), 0.5 nM, Experiment 2 [%]",Binder
147,148,164,164,B1
150,143,178,172,B2
144,149,160,169,B3
150,143,166,164,B4
146,148,161,156,B5

# Target: T2, guinea pig IGF-I receptor (guinea pig, UniProt P08069 31-1367 (human entry))
# T2 construct: Whole entry as named; expressed on HEK293T cells; also called IGF-I receptor of guinea pig; XP_003475316
# Experiment: cell-based ELISA, 2 nM antibody on HEK293T cells expressing the receptor, A450-A650
# Method: (§1) The HEK293T cells cultured for at least one night after the lipofection were added to a 96-well plate (coated with poly-D-lysine) in 4×10⁴ cells/well, and the plate further cultured for at least one night were used in the ELISA.
# (§2) In the ELISA, 2 nM humanized antibody solutions in 1% BSA/1% FBS/PBS (100 μL) were added to respective wells and reacted for about one hour at 37° C. The wells were washed three times with a cleaning solution. An HRP conjugate solutions (100 μL) of an anti-human IgG antibody prepared at various concentrations with 1% BSA/1% FBS/PBS was added to the respective wells and reacted for about one hour at 37° C. Each well was washed three times with a cleaning solution. A TMB substrate (100 μL) was added to each well to initiate the reaction. Approximately 30 minutes later, 1M sulfuric acid (100 μL) was added to each well to measure the absorbances at 450 nm and 650 nm and calculate the difference of the values between 450 nm and 650 nm.
# T2 sequence (P08069 other isoform, or with tags, fused parts or gaps limits assumed): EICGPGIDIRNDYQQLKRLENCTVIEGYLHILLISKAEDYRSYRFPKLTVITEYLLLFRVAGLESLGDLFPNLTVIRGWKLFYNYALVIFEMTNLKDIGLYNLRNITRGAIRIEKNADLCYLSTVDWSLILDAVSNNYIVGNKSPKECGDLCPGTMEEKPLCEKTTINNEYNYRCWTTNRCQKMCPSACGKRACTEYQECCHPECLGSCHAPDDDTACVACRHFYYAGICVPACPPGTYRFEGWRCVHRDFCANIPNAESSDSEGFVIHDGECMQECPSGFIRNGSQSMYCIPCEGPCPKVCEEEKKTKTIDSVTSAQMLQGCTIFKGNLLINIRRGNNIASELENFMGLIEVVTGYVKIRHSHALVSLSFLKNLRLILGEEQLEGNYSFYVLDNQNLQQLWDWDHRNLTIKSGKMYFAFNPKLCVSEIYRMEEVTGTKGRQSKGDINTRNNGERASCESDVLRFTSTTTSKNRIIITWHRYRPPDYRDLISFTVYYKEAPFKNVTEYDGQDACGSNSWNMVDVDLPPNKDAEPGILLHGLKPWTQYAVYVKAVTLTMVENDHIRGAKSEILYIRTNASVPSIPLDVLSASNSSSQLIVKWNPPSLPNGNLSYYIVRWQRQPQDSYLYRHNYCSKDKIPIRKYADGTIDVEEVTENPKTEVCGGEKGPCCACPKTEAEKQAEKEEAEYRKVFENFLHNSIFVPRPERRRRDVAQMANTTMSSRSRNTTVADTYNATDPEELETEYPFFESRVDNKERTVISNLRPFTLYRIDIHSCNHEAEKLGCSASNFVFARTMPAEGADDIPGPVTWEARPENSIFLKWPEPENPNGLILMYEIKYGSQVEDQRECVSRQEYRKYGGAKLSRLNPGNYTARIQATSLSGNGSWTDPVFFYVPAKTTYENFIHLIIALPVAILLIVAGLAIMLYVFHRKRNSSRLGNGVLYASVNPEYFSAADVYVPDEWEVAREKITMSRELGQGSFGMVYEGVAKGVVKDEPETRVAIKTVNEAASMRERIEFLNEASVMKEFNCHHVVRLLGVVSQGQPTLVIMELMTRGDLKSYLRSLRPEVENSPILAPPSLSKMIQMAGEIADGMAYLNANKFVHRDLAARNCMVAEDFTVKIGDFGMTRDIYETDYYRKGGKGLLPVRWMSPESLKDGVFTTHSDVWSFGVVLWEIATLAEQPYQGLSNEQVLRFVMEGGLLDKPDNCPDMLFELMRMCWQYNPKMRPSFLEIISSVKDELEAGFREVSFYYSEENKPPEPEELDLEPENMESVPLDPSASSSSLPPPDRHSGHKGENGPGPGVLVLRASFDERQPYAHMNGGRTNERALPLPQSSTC
row,Avidity (relative to control HEK293T cells = 1),Binder
1,3.3 fold of control cells,B1
2,3.3 fold of control cells,B2
3,3.3 fold of control cells,B3
4,3.4 fold of control cells,B4
5,3.3 fold of control cells,B5

# Target: T3, cynomolgus monkey IGF-I receptor (cynomolgus monkey, UniProt P08069 31-1367 (human entry))
# T3 construct: Whole entry as named; expressed on HEK293T cells; also called IGF-I receptor of cynomolgus monkey; XP_005560575
# Experiment: as above
# Method: as §1, §2
# T3 sequence (P08069 other isoform, or with tags, fused parts or gaps limits assumed): as the sequence (P08069 31-1367 limits assumed) above, with T188A, S471W, A729V, P738L, E1238D counted along it
row,Avidity (relative to control HEK293T cells = 1),Binder
1,3.3 fold of control cells,B1
2,3.3 fold of control cells,B2
3,3.4 fold of control cells,B3
4,3.7 fold of control cells,B4
5,3.3 fold of control cells,B5

# Target: T1, human IGF-I receptor
# Experiment: as above
# Method: as §1, §2
row,Avidity (relative to control HEK293T cells = 1),Binder
1,3.4 fold of control cells,B1
2,3.4 fold of control cells,B2
3,3.4 fold of control cells,B3
4,3.7 fold of control cells,B4
5,3.4 fold of control cells,B5

# Target: T4, rat IGF-I receptor (rat, UniProt P24062 31-1370)
# T4 construct: Whole entry as named; expressed on HEK293T cells; also called IGF-I receptor of rat; NP_434694
# Experiment: as above
# Method: as §1, §2
# T4 sequence (P24062 31-1370 limits assumed): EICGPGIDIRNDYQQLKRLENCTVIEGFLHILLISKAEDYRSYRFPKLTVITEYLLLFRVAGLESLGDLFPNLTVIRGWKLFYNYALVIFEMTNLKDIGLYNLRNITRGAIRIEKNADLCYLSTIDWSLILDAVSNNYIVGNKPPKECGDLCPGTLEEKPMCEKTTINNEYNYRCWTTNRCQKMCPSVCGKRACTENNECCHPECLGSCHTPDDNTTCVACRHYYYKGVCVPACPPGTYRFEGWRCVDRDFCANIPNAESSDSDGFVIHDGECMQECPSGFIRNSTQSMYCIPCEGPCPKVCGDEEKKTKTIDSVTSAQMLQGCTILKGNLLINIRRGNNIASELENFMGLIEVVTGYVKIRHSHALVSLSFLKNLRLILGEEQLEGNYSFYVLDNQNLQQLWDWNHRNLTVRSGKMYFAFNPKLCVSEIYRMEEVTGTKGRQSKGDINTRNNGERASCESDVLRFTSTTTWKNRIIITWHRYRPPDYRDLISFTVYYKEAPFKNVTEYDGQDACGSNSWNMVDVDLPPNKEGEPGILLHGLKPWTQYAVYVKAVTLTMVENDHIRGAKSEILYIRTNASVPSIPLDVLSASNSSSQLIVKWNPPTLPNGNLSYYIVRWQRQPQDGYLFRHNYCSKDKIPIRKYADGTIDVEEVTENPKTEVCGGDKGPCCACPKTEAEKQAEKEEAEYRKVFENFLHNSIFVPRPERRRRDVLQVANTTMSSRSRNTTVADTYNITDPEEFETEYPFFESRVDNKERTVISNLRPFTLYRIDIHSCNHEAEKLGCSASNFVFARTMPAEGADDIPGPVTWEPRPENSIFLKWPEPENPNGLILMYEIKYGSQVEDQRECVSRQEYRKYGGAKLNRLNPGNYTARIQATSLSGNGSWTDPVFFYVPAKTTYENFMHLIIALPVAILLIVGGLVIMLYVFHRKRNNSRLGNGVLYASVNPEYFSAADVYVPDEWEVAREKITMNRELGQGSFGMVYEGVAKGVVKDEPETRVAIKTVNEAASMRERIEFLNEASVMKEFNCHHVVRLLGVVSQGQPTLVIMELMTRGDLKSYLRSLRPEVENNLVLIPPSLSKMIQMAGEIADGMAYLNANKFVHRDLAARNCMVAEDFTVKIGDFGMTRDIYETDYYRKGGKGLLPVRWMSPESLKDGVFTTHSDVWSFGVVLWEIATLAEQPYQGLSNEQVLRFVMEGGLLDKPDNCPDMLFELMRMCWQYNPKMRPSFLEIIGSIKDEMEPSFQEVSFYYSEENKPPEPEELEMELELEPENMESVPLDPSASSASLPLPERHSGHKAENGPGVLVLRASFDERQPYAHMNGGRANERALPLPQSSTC
row,Avidity (relative to control HEK293T cells = 1),Binder
1,0.8 fold of control cells,B1
2,0.9 fold of control cells,B2
3,0.9 fold of control cells,B3
4,0.8 fold of control cells,B4
5,0.9 fold of control cells,B5

# Target: T4, rat IGF-I receptor
# Experiment: cell-based ELISA on HEK293T cells expressing the receptor
# Method: as §1, §2
row,binding result,Binder
1,no binding (tested: 2 nM),B1
2,no binding (tested: 2 nM),B2
3,no binding (tested: 2 nM),B3
4,no binding (tested: 2 nM),B4
5,no binding (tested: 2 nM),B5

# Target: T5, Substitute 1 of CR domain (human IGF-I receptor D245N, A247T, E294D, C-terminal FLAG tag) (human, UniProt P08069 31-1367)
# T5 construct: Expressed on 293T cells, formalin fixed; also called substitute 1 receptor
# Experiment: cell-based ELISA, 5 nM R11-16B on fixed 293T cells expressing the FLAG-tagged receptor; Mock cells gave 0.328
# Method: (§3) 293T cells were seeded in 10-cm dishes coated with poly-D-lysine in 6×10⁶ cells. On the next day, each plasmid DNA was introduced into the cells by lipofection. Two days later, the 293T cells were released with 0.05% trypsin/EDTA and suspended in the culture medium. The 293T cells were added to a 96-well plate (coated with poly-D-lysine) in 2×10⁴ cells/well and incubated overnight at 37° C. under 5% CO₂. The medium was removed from the 96-well plate. The plate was fixed with 10% buffered formalin (Mildform® 10NM, Wako), replaced by a blocking buffer (3% BSA/PBS/0.02% sodium azide), and used for the ELISA.
# (§4) Each well was washed two times with a cleaning solution. A 2500-fold diluted solution of an anti-human IgG antibody ALP conjugate solution (2087-04, Southern Biotech) in the blocking buffer (50 μL) was added to each well and reacted for about one hour at room temperature. Each well was washed three times with a cleaning solution. A pNPP substrate (100 μL) was added to each well to initiate the reaction. The absorbances at 405 nm and 550 nm were measured after about one hour.
row,"Avidity (absorbance, R11-16B added minus not added) [absorbance]",Binder
1,0.885,B1

# Target: T6, Substitute 2 of CR domain (human IGF-I receptor G315S, S316T, C-terminal FLAG tag) (human, UniProt P08069 31-1367)
# T6 construct: Expressed on 293T cells, formalin fixed; also called substitute 2 receptor
# Experiment: as above
# Method: as §3, §4
row,"Avidity (absorbance, R11-16B added minus not added) [absorbance]",Binder
1,0.308,B1

# Target: T7, wild-type human IGF-I receptor with C-terminal FLAG tag (human, UniProt P08069 31-1367)
# T7 construct: Expressed on 293T cells, formalin fixed; also called positive control
# Experiment: as above
# Method: as §3, §4
row,"Avidity (absorbance, R11-16B added minus not added) [absorbance]",Binder
1,0.835,B1

# Target: T1, human IGF-I receptor
# Experiment: cell-based or functional assay
# Remark: another data set of the same source
row,EC50 of proliferation activity on human myoblast cells [pM],Binder
1,2,B1
2,2,B2
3,2,B3
4,2,B4
5,2,B5

# Target: T6, Substitute 2 of CR domain (human IGF-I …)
# Experiment: cell-based ELISA on fixed 293T cells expressing the substitute receptor
# Method: as §3, §4
row,binding result,Binder
1,no binding (tested: 5 nM),B1
